Test results published in patent US20090089894A1 (IOWA STATE UNIVERSITY RESEARCH FOUNDATION, published 2009).

Biological target: T1, pB42AD-T, SV40 large T-antigen (87-708 aa) in the pB42AD vector (SV40, UniProt P03070 87-708)
T1 construct: range 87-708; positive control prey
Assay: yeast two-hybrid positive control (FIG. 2)

T1 sequence (P03070 87-708 limits assumed): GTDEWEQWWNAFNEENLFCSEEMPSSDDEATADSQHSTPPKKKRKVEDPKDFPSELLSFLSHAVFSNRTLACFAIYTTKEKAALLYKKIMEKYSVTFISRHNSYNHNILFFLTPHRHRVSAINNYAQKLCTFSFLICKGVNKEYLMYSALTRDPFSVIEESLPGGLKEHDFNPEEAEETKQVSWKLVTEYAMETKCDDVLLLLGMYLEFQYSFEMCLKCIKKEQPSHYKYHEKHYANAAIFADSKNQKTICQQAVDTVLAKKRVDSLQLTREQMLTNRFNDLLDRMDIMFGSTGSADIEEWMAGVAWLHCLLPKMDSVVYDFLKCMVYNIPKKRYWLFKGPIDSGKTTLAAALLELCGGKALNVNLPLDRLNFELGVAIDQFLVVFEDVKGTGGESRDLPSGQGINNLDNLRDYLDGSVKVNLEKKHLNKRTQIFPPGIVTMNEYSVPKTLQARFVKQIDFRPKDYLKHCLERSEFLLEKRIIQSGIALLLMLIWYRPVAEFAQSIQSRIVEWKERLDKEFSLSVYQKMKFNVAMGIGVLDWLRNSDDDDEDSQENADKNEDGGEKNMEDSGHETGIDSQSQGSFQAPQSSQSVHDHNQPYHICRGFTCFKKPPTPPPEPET

B1: pLexA-53, murine p53 (72-390 aa) in the pLexA vector (other)
chain: PVTETPGPVAPAPATPWPLSSFVPSQKTYQGNYGFHLGFLQSGTAKSVMCTYSPPLNKLFCQLAKTCPVQLWVSATPPAGSRVRAMAIYKKSQHMTEVVRRCPHHERCSDGDGLAPPQHLIRVEGNLYPEYLEDRQTFRHSVVVPYEPPEAGSEYTTIHYKYMCNSSCMGGMNRRPILTIITLEDSSGNLLGRDSFEVRVCACPGRDRRTEEENFRKKEVLCPELPPGSAKRALPTCTSASPPQKKKPLDGEYFTLKIRGRKRFEMFRELNEALELKDAHATEESGDSRAHSSYLKTKKGQSTSRHKKTMVKKVGPDSD
notes: range 72-390; positive control bait
  binding result: binds
